Experimental data taken from the supplement of paper PMC9732359.
± gives the uncertainty stated by the source.

Assay: protein stability index of a GFP-peptide fusion (yeast GPS) (PSI 1-4); higher = more stable; sorted into four equal gates, so the index is relative within each strain
Summary of the method: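 Each library plasmid carries Cherry plus GFP with a tiled 17-residue yeast protein peptide fused downstream, and the pooled library was carried in yeast. Mid-log cultures in leucine-free medium were sorted into four equal gates by GFP/Cherry ratio. Reads from Illumina sequencing of PCR-amplified plasmids from each gate were assigned to strains by barcodes. Per peptide, the protein stability index was computed as the summed products of gate read frequency and gate number.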

Sequence | protein stability index (doa10∆) | protein stability index (pdr5∆) | protein stability index (san1∆) | protein stability index (ubr1∆)
EWFEQNNSEQDQEIVIQ [ISW2] | 3.04 ± 0.13 | 3.19 ± 0.14 | 2.45 ± 0.18 | 3.25 ± 0.093
KKVTAFVPNDGCLNFVD [RPS23A] | 2.88 ± 0.054 | 3.17 ± 0.046 | 3.11 ± 0.032 | 2.85 ± 0.035
KTAMAELALLNHWRQNK [BRR2] | 1.39 ± 0.082 | 1.79 ± 0.12 | 1.26 ± 0.17 | 1.88 ± 0.062
PYAVLSQFYELRDREDW [YJR042W/NUP85] | 2.16 ± 0.16 | – | 2.31 ± 0.21 | 2.71 ± 0.18
SPMLSISNLTQEQVQDY [FAS1] | 2.97 ± 0.058 | 2.97 ± 0.047 | 2.98 ± 0.05 | 3.09 ± 0.044
GIQEVVHNTNSFIISSL [NUT1] | 2.12 ± 0.074 | 2.46 ± 0.059 | 2.04 ± 0.087 | 2.54 ± 0.066
DHEFVLISLIMTTWRKL [YMR129W/POM152] | 1.3 ± 0.12 | 1.09 ± 0.075 | 1.1 ± 0.14 | 1.26 ± 0.07
VGDEFKGYVFKISGGND [RPS6A] | 3.08 ± 0.28 | 3.49 ± 0.13 | 3.06 ± 0.15 | 3.58 ± 0.13
HGKRRSQVVETHKVTDI [YMR129W/POM152] | 3.35 ± 0.13 | 3.01 ± 0.13 | 3.18 ± 0.064 | 3.2 ± 0.058
KIMVAEWYLSHLCSGIL [SRB8] | 1.35 ± 0.056 | 1.39 ± 0.057 | 1.24 ± 0.077 | 1.47 ± 0.049
TREDVSPHYNSQKQTLI [SSN3] | 2.16 ± 0.05 | 2.71 ± 0.05 | 2.15 ± 0.048 | 2.81 ± 0.051
FEDSMQFKKLTHAQRTG [PRP8] | 2.81 ± 0.086 | 3.11 ± 0.083 | 3.07 ± 0.087 | 2.99 ± 0.085
TEKKFTKEQYAAESKKY [RPL5] | 3.2 ± 0.16 | 3.07 ± 0.14 | 2.98 ± 0.075 | 3.02 ± 0.11
YIEASGREGIWSKTIKA [RPC34] | 1.78 ± 0.1 | 2.07 ± 0.16 | 2.3 ± 0.17 | 2.42 ± 0.1
NISISTSELGNDDFSEV [BRR2] | 2.94 ± 0.12 | 3.19 ± 0.096 | 2.46 ± 0.078 | 3.12 ± 0.077
MRELGLIQSTEFPSITS [YOR098C/NUP1] | 3.12 ± 0.1 | 3.29 ± 0.092 | 2.21 ± 0.12 | 3.17 ± 0.078
SRGINKGHKFNNTKAGR [RPL15A] | 3.28 ± 0.29 | 3 ± 0.2 | – | 3.4 ± 0.17
SKPESSVLQLIVSEDHI [MED1] | 2.14 ± 0.16 | 2.17 ± 0.079 | 2.06 ± 0.14 | 2.7 ± 0.092
VAARGLDIPNVSLVVNF [PRP28] | 2 ± 0.12 | 2.5 ± 0.096 | 2.04 ± 0.12 | 3.1 ± 0.15
KIQFILEQMELSILKGD [RPN5] | – | 2.57 ± 0.23 | 2.35 ± 0.29 | 2.65 ± 0.19
DSEIEISSEKLLTLTNA [RPP1A] | 2.99 ± 0.063 | 2.92 ± 0.073 | 2.93 ± 0.061 | 3.12 ± 0.055
IEALYDDDTFSDREMAA [RPN2] | 2.19 ± 0.066 | 1.89 ± 0.051 | 1.57 ± 0.1 | 2.13 ± 0.054
GQGAFGNMCRGGRMFAP [RPL4A] | 3.61 ± 0.2 | 3.06 ± 0.27 | 3.23 ± 0.067 | 3.4 ± 0.11
LRLVDDDENNPSHYPHP [RRP6] | 3.11 ± 0.09 | 2.92 ± 0.093 | 2.77 ± 0.069 | 2.89 ± 0.038
PFNKPNIETGENHNGQS [SWI3] | 3.3 ± 0.14 | 3.16 ± 0.12 | 3.22 ± 0.13 | 2.78 ± 0.13

Sequence | protein stability index (doa10∆) | protein stability index (pdr5∆) | protein stability index (san1∆) | protein stability index (ubr1∆)
FAAAPNDTSSGTNAMLP [SNF5] | 3.13 ± 0.078 | 3.26 ± 0.13 | 3.06 ± 0.096 | 2.89 ± 0.1
TTDDEEEPIKKLCYVLG [RET1] | 3.42 ± 0.27 | 3.29 ± 0.18 | – | 3.46 ± 0.17
VGFWKDDGDDEDLLECL [MTR3] | 2.67 ± 0.15 | 3.42 ± 0.19 | 3.5 ± 0.22 | –
YQKLFSQFINDHILFTK [SRB8] | 1.94 ± 0.044 | 2.06 ± 0.048 | 2.04 ± 0.065 | 2 ± 0.04
TLKLQDTRITPSKVSKI [PRE6] | 2.53 ± 0.05 | 2.85 ± 0.052 | 2.34 ± 0.1 | 2.01 ± 0.031
VKDWLYDSRPLEEDSKK [PRP8] | 2.95 ± 0.19 | 2.91 ± 0.24 | 2.8 ± 0.12 | –
SIQPIESNIKMTLEDNN [SSN2] | 3.12 ± 0.077 | 3.08 ± 0.075 | 2.81 ± 0.053 | 2.97 ± 0.043
DGAYALSASWDKTLRLW [ASC1] | 3.28 ± 0.064 | 3.28 ± 0.057 | 3.18 ± 0.093 | 3.26 ± 0.036
LDGKFSLFHTAVSVANG [RPN2] | 2.09 ± 0.056 | 2.03 ± 0.057 | 2.45 ± 0.077 | 2.37 ± 0.06
TQTSKEQEIENNGLPMK [ITC1] | 2.9 ± 0.075 | 3.2 ± 0.12 | 2.87 ± 0.1 | 2.86 ± 0.089
NDEGVWDLVDERTKQRT [PRP8] | 3.19 ± 0.12 | 3.37 ± 0.13 | 3.35 ± 0.13 | 3.26 ± 0.12
NQQQPPQDILSKLYLLL [SNF11] | 2.09 ± 0.042 | 2.55 ± 0.051 | 2.47 ± 0.056 | 2.54 ± 0.045
LANFVAKGFYHTPMVNF [SRB8] | 2.57 ± 0.059 | 2.27 ± 0.044 | 1.92 ± 0.082 | 2.32 ± 0.048
MSQAVNAKKRVFKTHSY [RPS15] | 2.57 ± 0.055 | 1.72 ± 0.035 | 2.19 ± 0.11 | 2.63 ± 0.061
ASVVPSASSLVITALKE [RPL12A] | 2.09 ± 0.044 | 2.3 ± 0.051 | 2.12 ± 0.071 | 1.96 ± 0.045
YLAHEDNKEKDFELEIS [PRE10] | 2.84 ± 0.17 | 2.86 ± 0.12 | 3.23 ± 0.1 | 3.33 ± 0.072
TGVMIGIDLAYNMYDAY [PRP8] | 2.5 ± 0.064 | 2.69 ± 0.053 | 2.82 ± 0.066 | 2.84 ± 0.051
IGTNDLFQVESAPKISS [SIR4] | 2.42 ± 0.049 | 2.9 ± 0.047 | 2.63 ± 0.047 | 2.43 ± 0.035
HQQRMSRTAADILLRLC [YCG1] | 2.48 ± 0.29 | 1.63 ± 0.2 | – | 2.66 ± 0.1
YSWLLFEASCMEGQKLD [YJR042W/NUP85] | 1.09 ± 0.094 | 1.36 ± 0.09 | 1.39 ± 0.2 | 1.17 ± 0.064
KAPKIQRLVTPQRLQRK [RPS6A] | 2.77 ± 0.06 | 2.95 ± 0.049 | 2.91 ± 0.042 | 2.94 ± 0.039
VSMVKRAIDSLIQKGYL [CDC53] | 1.74 ± 0.053 | 1.82 ± 0.058 | 2.03 ± 0.11 | 1.74 ± 0.052
IFFDEIDAVGGARFDDG [RPT1] | 3.01 ± 0.17 | 2.77 ± 0.15 | 3.24 ± 0.088 | 3.11 ± 0.089
QFTSSLFKALKVILNER [RGR1] | 2.03 ± 0.11 | 2.4 ± 0.069 | 1.83 ± 0.1 | 2.42 ± 0.077
LNEEAVIFLSSLLTLVG [YJL039C/NUP192] | 2.52 ± 0.076 | 2.72 ± 0.086 | 2.3 ± 0.11 | 2.9 ± 0.088
